Sequences and labels used below:
B1: SEQ ID NO: 439 (designed binder)
chain: MGSWQWFKDDLAYIKETLEALGGSEAELALFEDMIADFEFELQWYKGKGNPEVEALRKEAAAIRDELQAYRHN
notes: D domain, on phage
B2: SEQ ID NO: 444 (designed binder)
chain: B1 chain with Q5Y, Y13E, E16G, T17L, L30E, M34E, D37V, F40Q, W44E
notes: D domain, on phage
B3: SEQ ID NO: 401 (designed binder)
chain: MGSWQEFTMRLDAIYNRLETLGGSEAELAAFEKEIAAFESELQAYKGKGNPEVEWLRQSAANIRSELQAYRHN
notes: D domain, on phage
B4: SEQ ID NO: 457 (designed binder)
chain: MGSWNSFKDELAEIKAELEALGGSEAELAFFEEDIAWFEEHLQQYKGKGNPEVEALRKEAAAIRDELQAYRHN
notes: D domain, on phage
B5: SEQ ID NO: 458 (designed binder)
chain: B4 chain with N5D, S6L, D9W, A16L, E17G, F30E, E33Y, H41D, Q44D
notes: D domain, on phage
B6: SEQ ID NO: 394 (designed binder)
chain: MGSWWEFENRLWAIEERLEALGGSEAELAAFEKEIAAFESELQAYKGKGNPEVEMLRNYAAEIRWELQAYRHN
notes: D domain, on phage
B7: SEQ ID NO: 392 (designed binder)
chain: B6 chain with W5T, E8W, N9E, W12N, E15D, E19F, M55W, N58L, W65S
notes: D domain, on phage
B8: SEQ ID NO: 393 (designed binder)
chain: B6 chain with N9E, E15D, E16Y, E19H, N58S, Y59W, W65A, E66L
notes: D domain, on phage
B9: SEQ ID NO: 396 (designed binder)
chain: MGSWVEFEERLEAIEERLFALGGSEAELAAFEKEIAAFESELQAYKGKGNPEVEWLRDDAANIRHWLQAYRHN
notes: D domain, on phage
B10: SEQ ID NO: 395 (designed binder)
chain: B9 chain with E12W, E15D, F19G, D59W, N62D, H65W
notes: D domain, on phage
B11: SEQ ID NO: 435 (designed binder)
chain: MGSWHFFKDDLAWIKNELEALGGSEAELAMFEDDIAMFETMLQSYKGKGNPEVEALRKEAAAIRDELQAYRHN
notes: D domain, on phage
B12: SEQ ID NO: 436 (designed binder)
chain: B11 chain with F6W, D9T, W13D, N16E, M37E, T40E, M41F, S44M
notes: D domain, on phage
B13: SEQ ID NO: 442 (designed binder)
chain: B11 chain with H5G, F6H, D9Q, N16D, E17T, M30F, T40M, M41E, S44D
notes: D domain, on phage
B14: SEQ ID NO: 443 (designed binder)
chain: MGSWGYFKDDLAWIKGELEALGGSEAELAEFEWFIAVFEEDLQVYKGKGNPEVEALRKEAAAIRDELQAYRHN
notes: D domain, on phage
B15: SEQ ID NO: 437 (designed binder)
chain: MGSWWLFKDDLAEIKYWLEALGGSEAELAFFEDDIAEFERGLQIYKGKGNPEVEALRKEAAAIRDELQAYRHN
notes: D domain, on phage
B16: SEQ ID NO: 440 (designed binder)
chain: B1 chain with Q5I, W6L, Y13W, L30F, M34N, F40E, E41Q, W44G
notes: D domain, on phage
B17: SEQ ID NO: 465 (designed binder)
chain: B15 chain with W5Y, L6V, D10E, Y16Q, W17F, F30W, R40T, G41Q, I44H
notes: D domain, on phage
B18: SEQ ID NO: 449 (designed binder)
chain: B15 chain with W5T, L6Y, E13D, Y16Q, D33I, D34E, R40E, G41E, I44E
notes: D domain, on phage
B19: SEQ ID NO: 448 (designed binder)
chain: B15 chain with W5T, L6F, D9N, Y16D, F30D, D33W, R40Y, G41S, I44E
notes: D domain, on phage
B20: SEQ ID NO: 438 (designed binder)
chain: B15 chain with W5Y, L6E, Y16E, D33L, E37D, R40W, G41L, I44L
notes: D domain, on phage
B21: SEQ ID NO: 460 (designed binder)
chain: B15 chain with W5H, D9W, D10T, W17E, F30W, E37T, R40E, G41E, I44W
notes: D domain, on phage
B22: SEQ ID NO: 450 (designed binder)
chain: MGSWTVFKYDLADIKWWLEALGGSEAELADFEEEIAEFEEELQEYKGKGNPEVEALRKEAAAIRDELQAYRHN
notes: D domain, on phage
B23: SEQ ID NO: 446 (designed binder)
chain: B22 chain with V6F, Y9E, D13G, W17E, D30W, E33D, E37L
notes: D domain, on phage
B24: SEQ ID NO: 447 (designed binder)
chain: MGSWVFFKDDLADIKDELEALGGSEAELAFFEIAIALFEWELQEYKGKGNPEVEALRKEAAAIRDELQAYRHN
notes: D domain, on phage
B25: SEQ ID NO: 399 (designed binder)
chain: MGSWFEFWERLDAIEWRLWALGGSEAELAAFEKEIAAFESELQAYKGKGNPEVEELRSTAADIRRYLQAYRHN
notes: D domain, on phage
B26: SEQ ID NO: 432 (designed binder)
chain: B25 chain with W8Y, E15N, W19F, E55A, S58G, T59E, D62A, R65E, Y66D
notes: D domain, on phage
B27: SEQ ID NO: 441 (designed binder)
chain: B22 chain with T5I, Y9D, W16R, D30M, E33D, E37D, E40W, E41Q, E44D
notes: D domain, on phage
B28: SEQ ID NO: 434 (designed binder)
chain: MGSWFYFKDDLADINYMLEALGGSEAELAMFEDDIAGFELTLLKYKGKGNPEVEALRKEAAAIRDELQAYRHN
notes: D domain, on phage
B29: SEQ ID NO: 398 (designed binder)
chain: B9 chain with V5S, E9H, E16S, W55D, D58S, D59E, N62W, H65E, W66Q
notes: D domain, on phage
B30: SEQ ID NO: 400 (designed binder)
chain: B25 chain with E9G, D12E, W16S, W19K, S58E, T59H, D62W, R65A
notes: D domain, on phage
B31: SEQ ID NO: 445 (designed binder)
chain: B22 chain with T5M, V6F, Y9E, W17A, D30F, E37L, E40Q, E41H, E44Q
notes: D domain, on phage
B32: SEQ ID NO: 466 (designed binder)
chain: MGSWIFFKEQLAIIKWELEALGGSEAELAWFEDDIAAFEDDLQFYKGQGNPEVEALRKEAAAIRDELQAYRHN
notes: D domain, on phage
B33: SEQ ID NO: 451 (designed binder)
chain: MGSWYWFKQDLAHIKSMLEALGGSEAELAWFEEDIADFESELQEYKGKGNPEVEALRKEAAAIRDELQAYRHN
notes: D domain, on phage
B34: SEQ ID NO: 456 (designed binder)
chain: B4 chain with N5Y, S6W, D9E, E13F, A16W, F30L, W37Y, H41M, Q44E
notes: D domain, on phage
B35: SEQ ID NO: 455 (designed binder)
chain: B4 chain with N5Q, S6T, E13H, A16W, F30W, E33W, W37N, H41E, Q44E
notes: D domain, on phage
B36: SEQ ID NO: 452 (designed binder)
chain: B22 chain with V6F, Y9W, W16A, W17N, D30W, E34D, I35L, E37G, E40A
notes: D domain, on phage
B37: SEQ ID NO: 459 (designed binder)
chain: B33 chain with Y5I, W6F, H13E, S16L, M17N, E33D, D37W, E41H, E44D
notes: D domain, on phage
B38: SEQ ID NO: 453 (designed binder)
chain: MGSWSFFKEELANIQVYLEALGGSEAELAWFEEDIADFEEDLQHYKGKGNPEVEALRKEAAAIRDELQAYRHN
notes: D domain, on phage
B39: SEQ ID NO: 454 (designed binder)
chain: B4 chain with N5E, S6F, D9Y, E13D, A16D, F30W, W37T, H41W, Q44G
notes: D domain, on phage
B40: SEQ ID NO: 461 (designed binder)
chain: B24 chain with F6T, D10E, E17F, I33V, A34D, L37E, W40A, E44F
notes: D domain, on phage
B41: SEQ ID NO: 463 (designed binder)
chain: MGSWETFKYELAEIKDYLEALGGSEAELAWFEDDIAEFEFELQYYKGKGNPEVEALRKEAAAIRDELQAYRHN
notes: D domain, on phage
B42: SEQ ID NO: 464 (designed binder)
chain: B41 chain with E5N, D16H, Y17F, W30M, E37M, F40W, Y44E
notes: D domain, on phage
B43: SEQ ID NO: 462 (designed binder)
chain: MGSWVYFKDELADIKDFLEALGGSEAELAEFEEDIATFEYDLQWYKGKGNPEVEALRKEAAAIRDELQAYRHN
notes: D domain, on phage
B44: SEQ ID NO: 433 (designed binder)
chain: MGSWNEFEDRLDAIWWRLFALGGSEAELAAFEKEIAAFESELQAYKGKGNPEVEALRVEAAFIRTMLQAYRHN
notes: D domain, on phage

Changes are numbered by the printed parent chain.

This assay concerns the target T1, recombinant human CD123-Fc (human, UniProt P26951 19-305).
T1 construct: not shown: Fc part of CD123-Fc
T1 sequence: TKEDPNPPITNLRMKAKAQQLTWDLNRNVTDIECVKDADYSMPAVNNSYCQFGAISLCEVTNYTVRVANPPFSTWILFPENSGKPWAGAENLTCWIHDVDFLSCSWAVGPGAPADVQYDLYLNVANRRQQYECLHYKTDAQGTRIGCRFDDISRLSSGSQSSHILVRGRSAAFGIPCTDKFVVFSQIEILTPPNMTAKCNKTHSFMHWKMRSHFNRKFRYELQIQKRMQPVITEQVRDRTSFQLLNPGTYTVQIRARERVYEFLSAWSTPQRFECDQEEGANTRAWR
Put plainly: phage ELISA, captured CD123-Fc. Here is the method:
Individual colonies containing phagemid from BCMA panning output were picked and phage were rescued in 96-well format using VCSM13 helper phage following standard protocols. To assay target binding by ELISA, 96-well plates were coated with 1.3 microg/ml goat anti-human IgG1-Fc antibody followed by incubation with 5 nM of recombinant human target (BCMA-Fc, CD123-Fc, AFP, or AFP123) or IgG1-Fc. 50 microl of rescued phage diluted 5× in ELISA blocking buffer was then added to each well. Binding was detected using an HRP-conjugated anti-M13 antibody and the ELISA ratio for each sequence is reported as the absorbance at 450 nm for target (i.e., BCMA-Fc, CD123-Fc, AFP, or AFP123) divided by that for IgG1-Fc averaged across all screened wells containing that clone.
A general note: In an ELISA, binding on a coated surface is turned into a signal by an enzyme label.
As for B1, the ELISA_avg turned out to be 6.3 ratio A450 target/IgG1-Fc.
In the case of B2, the ELISA_avg was 10.4 ratio A450 target/IgG1-Fc.
Next, B3: 13.7 ratio A450 target/IgG1-Fc; B4: 3.3 ratio A450 target/IgG1-Fc.
Next, B5: 3.4 ratio A450 target/IgG1-Fc; B6: 5.6 ratio A450 target/IgG1-Fc.
With B7, the ELISA_avg turned out to be 4 ratio A450 target/IgG1-Fc.
On to B8, for which the ELISA_avg is 4.1 ratio A450 target/IgG1-Fc.
Next, B9: 3.8 ratio A450 target/IgG1-Fc.
Next, B10: 4.1 ratio A450 target/IgG1-Fc.
Next, B11: 3.2 ratio A450 target/IgG1-Fc; B12: 3.5 ratio A450 target/IgG1-Fc.
Take B13: the ELISA_avg was determined as 4.9 ratio A450 target/IgG1-Fc.
Next, B14: 4.5 ratio A450 target/IgG1-Fc; B15: 3.3 ratio A450 target/IgG1-Fc; B16: 6 ratio A450 target/IgG1-Fc.
Take B17: the ELISA_avg was 9.9 ratio A450 target/IgG1-Fc.
Next, B18: 4.6 ratio A450 target/IgG1-Fc; B19: 3.9 ratio A450 target/IgG1-Fc.
In the case of B20, the ELISA_avg amounted to 3.8 ratio A450 target/IgG1-Fc.
As to B21, the ELISA_avg was 4 ratio A450 target/IgG1-Fc.
With B22, the ELISA_avg amounted to 3.9 ratio A450 target/IgG1-Fc.
B23: the ELISA_avg was 7 ratio A450 target/IgG1-Fc.
On to B24, for which the ELISA_avg worked out at 8.8 ratio A450 target/IgG1-Fc.
Regarding B25, the ELISA_avg worked out at 3.4 ratio A450 target/IgG1-Fc.
Next, B26: 3 ratio A450 target/IgG1-Fc; B27: 3.9 ratio A450 target/IgG1-Fc; B28: 3.7 ratio A450 target/IgG1-Fc.
Next, B29: 7.6 ratio A450 target/IgG1-Fc; B30: 4.9 ratio A450 target/IgG1-Fc.
Next, B31: 3.2 ratio A450 target/IgG1-Fc; B32: 15 ratio A450 target/IgG1-Fc.
With B33, the ELISA_avg stood at 3.3 ratio A450 target/IgG1-Fc.
Next, B34: 9.4 ratio A450 target/IgG1-Fc.
In the case of B35, the ELISA_avg stood at 5.5 ratio A450 target/IgG1-Fc.
B36: the ELISA_avg was 4.8 ratio A450 target/IgG1-Fc.
Next, B37: 3.8 ratio A450 target/IgG1-Fc; B38: 3.8 ratio A450 target/IgG1-Fc; B39: 3.4 ratio A450 target/IgG1-Fc.
In the case of B40, the ELISA_avg is 7.6 ratio A450 target/IgG1-Fc.
Consider B41, for which the ELISA_avg is 4.4 ratio A450 target/IgG1-Fc.
As for B42, the ELISA_avg is 5 ratio A450 target/IgG1-Fc.
Next, B43: 4.6 ratio A450 target/IgG1-Fc.
Next, B44: 5.1 ratio A450 target/IgG1-Fc.

The values above are taken from patent US20230125550A1 (ARCELLX, published 2023).
